Results from PMC7442782, “Molecular basis for DNA repair synthesis on short gaps by mycobacterial Primase-Polymerase C” (Nature Communications, 2020).
Substitutions are numbered along the chain they refer to.

Columns and labels:
[1] = biological target: T1, Prim–PolC (Msm Prim–PolC) (Mycolicibacterium smegmatis, UniProt A0R5T1); assay: X-ray crystal structure, […] Å; format: binding; conditions: pre-catalytic ternary complex with 2-nt gapped DNA and two Mn2+; active site; pH 6.5
T1 construct: gene ligD; residues 4-336 printed for the crystal structure (may be the ordered part of the full-length protein); N-terminal His tag, pET28, made in E. coli Origami B pLysS
T1 sequence (A0R5T1 4-336): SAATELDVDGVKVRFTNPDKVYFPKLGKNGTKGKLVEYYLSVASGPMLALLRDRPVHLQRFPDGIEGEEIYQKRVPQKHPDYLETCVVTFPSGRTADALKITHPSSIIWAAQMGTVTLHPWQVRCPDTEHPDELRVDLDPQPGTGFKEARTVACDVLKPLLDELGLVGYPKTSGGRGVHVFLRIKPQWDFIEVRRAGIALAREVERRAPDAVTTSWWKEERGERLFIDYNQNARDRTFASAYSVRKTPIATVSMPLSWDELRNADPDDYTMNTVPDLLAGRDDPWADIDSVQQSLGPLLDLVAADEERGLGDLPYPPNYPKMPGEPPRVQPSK

[2] = biological target: T2, Prim-PolC (crystallisation construct) (UniProt A0R5T1 4-336); assay: X-ray crystallography (2.2 A); Mn2+, UpNHpp; Crystals: 0.05 M Na cacodylate pH 6.5, 2 M ammonium sulfate, 0.01 M MnCl2, 285 K, 300 uM protein:600 uM DNA; 2-AP assay: 0-1 uM protein, 1 uM DNA, 5 mM Ca2+, 250 uM ATP (buffer, pH and temperature not in material); conditions: protein: recombinant; tags: N-terminal His; gapped duplex, 2-nt gap (AA), blunt outer ends
T2 sequence: T1 sequence (A0R5T1 4-336)

[3] = biological target: T2, Prim-PolC (crystallisation construct); assay: X-ray crystallography (2.0 A); Mn2+; PPi in one complex, 3'-dUTP in the other; Crystals: 0.05 M Na cacodylate pH 6.5, 2 M ammonium sulfate, 0.01 M MnCl2, 285 K, 300 uM protein:600 uM DNA; 2-AP assay: 0-1 uM protein, 1 uM DNA, 5 mM Ca2+, 250 uM ATP (buffer, pH and temperature not in material); conditions: protein: recombinant; tags: N-terminal His; gapped duplex, 1-nt gap, blunt outer ends
[4] = biological target: T3, Prim-PolC WT (UniProt A0R5T1 1-350); assay: 2-aminopurine fluorescence (base flipping); 5 mM Ca2+, 250 uM ATP; Crystals: 0.05 M Na cacodylate pH 6.5, 2 M ammonium sulfate, 0.01 M MnCl2, 285 K, 300 uM protein:600 uM DNA; 2-AP assay: 0-1 uM protein, 1 uM DNA, 5 mM Ca2+, 250 uM ATP (buffer, pH and temperature not in material); conditions: protein: recombinant, tags: N-terminal His, label: 2-AP, gapped duplex
T3 sequence: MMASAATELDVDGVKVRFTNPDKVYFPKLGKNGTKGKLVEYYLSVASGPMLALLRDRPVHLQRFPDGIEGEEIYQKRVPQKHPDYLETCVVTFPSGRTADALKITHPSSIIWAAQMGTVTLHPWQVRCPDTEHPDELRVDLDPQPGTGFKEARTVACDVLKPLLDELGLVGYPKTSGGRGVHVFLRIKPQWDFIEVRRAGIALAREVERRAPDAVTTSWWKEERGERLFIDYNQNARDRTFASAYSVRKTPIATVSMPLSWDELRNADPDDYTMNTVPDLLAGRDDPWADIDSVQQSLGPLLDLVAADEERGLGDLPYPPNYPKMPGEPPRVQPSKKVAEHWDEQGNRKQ

[5] = biological target: T4, Prim-PolC N321G (UniProt A0R5T1 1-350, N321G); assay: 2-aminopurine fluorescence (base flipping); 5 mM Ca2+, 250 uM ATP; similar to WT; Crystals: 0.05 M Na cacodylate pH 6.5, 2 M ammonium sulfate, 0.01 M MnCl2, 285 K, 300 uM protein:600 uM DNA; 2-AP assay: 0-1 uM protein, 1 uM DNA, 5 mM Ca2+, 250 uM ATP (buffer, pH and temperature not in material); conditions: protein: recombinant, tags: N-terminal His, label: 2-AP, gapped duplex
T4 sequence: T3 sequence with N321G

[6] = biological target: T5, Prim-PolC N321A (UniProt A0R5T1 1-350, N321A); assay: as above; conditions: protein: recombinant; tags: N-terminal His; label: 2-AP; gapped duplex, 1-nt gap
T5 sequence: T3 sequence with N321A

## O=c1ccn([C@@H]2O[C@H](COP(=O)(O)NP(=O)(O)OP(=O)(O)O)[C@@H](O)[C@H]2O)c(=O)[nH]1 [UpNHpp]
[1]
  X-ray crystal structure, 2.21 Å: a non-hydrolysable incoming UTP ribonucleotide (UpNHpp) and manganese ions were also included

B1: 2-nt gapped DNA T/P/D (dsDNA)
DNA 1: CGCTCGCAACGCACG
DNA 2: CGTGCG
DNA 3: GCGAGCG
modifications: 5'-phosphate on D strand
[2]
  binding result: binds

B2: 1-nt gapped post-catalytic DNA (mixed)
DNA 1: CGCTCGCAACGCACG
DNA 2: CGTGCGU
?: GCGAGCG
modifications: 5'-phosphate on D strand; primer 3' terminus is 3'-deoxyuridine (ribo, incorporated in situ)
[3]
  binding result: binds

B3: 2-AP 1-nt gap substrate (dsDNA)
DNA 1: AGTCGCATAGTGTAGTCATGTCGATTCGCCATAG
DNA 2: CTATGAGCGAATCGAC
DNA 3: CGACTACACTATGCGACT
modifications: 2-aminopurine at position 15 of primer oKZ282 (written A); 5'-phosphate on downstream strand
[4]; 1-nt gap
  binding result: binds
[5]; 1-nt gap
  binding result: binds
[6]
  binding result: binds

B4: 2-AP 3-nt gap substrate (dsDNA)
DNA 1: B3 DNA 1
DNA 2: CTATGAGCGAATCGAC
DNA 3: ACTACACTATGCGACT
modifications: 2-aminopurine at position 15 of primer oKZ282 (written A); 5'-phosphate on downstream strand
[5]; 3-nt gap
  binding result: binds

B5: 2-AP 2-nt gap substrate (dsDNA)
DNA 1: B3 DNA 1
DNA 2: CTATGAGCGAATCGAC
DNA 3: GACTACACTATGCGACT
modifications: 2-aminopurine at position 15 of primer oKZ282 (written A); 5'-phosphate on downstream strand
[4]; 2-nt gap
  binding result: binds
